# Measured values as given in the PETadex activity labels (doi:10.1016/s0014-5793(99)00813-3).
# Changes are numbered by the printed parent chain.
# B1: unnamed (protein)
# chain: MKPENKLPVLDLISAEMKTVVNTLQPDLPPWPATGTIAEQRQYYTLERRFWNAGAPEMATRAYMVPTKYGQVETRLFCPQPDSPATLFYLHGGGFILGNLDTHDRIMRLLASYSQCTVIGIDYTLSPEARFPQAIEEIVAACCYFHQQAEDYQINMSRIGFAGDSAGAMLALASALWLRDKQIDCGKVAGVLLWYGLYGLRDSVTRRLLGGVWDGLTQQDLQMYEEAYLSNDADRESPYYCLFNNDLTREVPPCFIAGAEFDPLLDDSRLLYQTLAAHQQPCEFKLYPGTLHAFLHYSRMMKTADEALRDGAQFFTAQL
# B2: unnamed (protein)
# chain: B1 chain with G167A
# B3: unnamed (protein)
# chain: B1 chain with D266A
# B4: unnamed (protein)
# chain: B1 chain with H103N
# B5: unnamed (protein)
# chain: B1 chain with G163A
# B6: unnamed (protein)
# chain: B1 chain with D164A
# B7: unnamed (protein)
# chain: B1 chain with E128Q
# B8: unnamed (protein)
# chain: B1 chain with D262A
# Substrate: p-NP-C4
# Conditions: pH 7.1; 25 °C
Protein,Km,kcat,kcat/Km
B1,500 µM,30.9 s⁻¹,61800 s⁻¹ M⁻¹
B2,2000 µM,49.4 s⁻¹,24700 s⁻¹ M⁻¹
B3,500 µM,3.4 s⁻¹,6800 s⁻¹ M⁻¹
B4,250 µM,12.1 s⁻¹,48400 s⁻¹ M⁻¹
B5,500 µM,2.9 s⁻¹,5800 s⁻¹ M⁻¹
B6,1000 µM,0.007 s⁻¹,7 s⁻¹ M⁻¹
B7,350 µM,7.4 s⁻¹,21100 s⁻¹ M⁻¹
B8,400 µM,0.034 s⁻¹,85 s⁻¹ M⁻¹
